B1: rhTWEAK: recombinant soluble human TWEAK containing amino-acid residues A106-H249 (protein, UniProt O43508 106-249, looked up, fragment)
chain: AIAAHYEVHPRPGQDGAQAGVDGTVSGWEEARINSSSPLRYNRQIGEFIVTRAGLYYLYCQVHFDEGKAVYLKLDLLVDGVLALRCLEEFSATAASSLGPQLRLCQVSGLLALRPGSSLRIRTLPWAHLKAAPFLTYFGLFQVH

Tests used:
NF-κB = NF-κB luciferase reporter (pNF-κB-Luc) in transfected cortical neurons; type: cell-based, mouse
Experimental: (§1) Cell culture and transient transfection. Cortical neurons were prepared from embryonic day 16 (E16) mice. For transfection, cells were plated on 24-well plates precoated with poly-D-lysine (50 ng/ml) at a density of 200,000 cells per well. For RNA preparation, 2 million cells per well were plated on six-well plates. Cells were incubated in NEUROBASAL™ medium (Invitrogen) supplemented with B27 (Invitrogen), L-glutamine (0.5 mM), penicillin (100 IU/ml), and streptomycin (100 μg/ml). In these cultures, >95% of cells were positive for the neuronal marker NeuN. After 10 days in vitro, cells were transfected using LIPOFECTAMINE™ 2000 (Invitrogen) and 1 ng per well of the NF-κB reporter plasmid pNF-κB-Luc, which has five tandem repeats of an NF-κB binding site (Stratagene, Amsterdam, The Netherlands), according to the manufacturer's protocol. After 24 hours, cells were stimulated as indicated and harvested. Luciferase activity was measured as described (Sallmann et al. (2000) J. Neurosci. 20:8637-8642).
(§2) As indicated, cortical neurons were prepared from a transgenic mouse line (NSE-IκBα-SR) that expressed the NF-κB super-repressor, a mutant of IκBα (IκBα-SR), selectively in neurons. In this transgene, two serine residues, which are phosphorylated by the IκB kinase (IKK), are exchanged to alanines. Neuronal expression is driven by a 1.8 KB fragment of the rat neuron-specific enolase (NSE) promoter. The cell dissociation was performed individually from the brain of each transgenic or wild-type embryo. To control for transfection efficiency, cortical neurons of NSE-IκBα-SR mice and wild-type littermates were cotransfected with 0.1 μg Per well of phRL-TK (Promega, Mannheim, Germany) in addition to pNF-κB-Luc.

cortical neurons [1] = assay: Cell Death Detection ELISA (histone-associated DNA fragments) in cortical neurons; type: cell-based, mouse; conditions: 100 ng/ml, 24 hr
Experimental: Cell death assays. For terminal deoxynucleotidyl transferase-mediated biotinylated UTP nick end labeling (TUNEL) staining, the cells were fixed in 4% paraformaldehyde at room temperature for 30 minutes. Then, cells were washed twice in PBS for 5 minutes and treated for 2 minutes with 200 μl of permeabilization solution (0.1% Triton X-100 and 0.1% sodium citrate in PBS) at 4° C. After washing, sections were incubated with 50 μl of TUNEL reaction mix (enzyme solution diluted 1:6 in labeling solution; In Situ Cell Detection Kit, Fluorescein; Roche, Mannheim, Germany) for 1 hour at 37° C. in the dark. Then, coverslips were mounted with medium containing 4′,6-diamidino-2-phenylindole dihydrochloride (DAPI; VECTASHIELD®; Vector Laboratories, Burlingame, Calif.). TUNEL and DAPI-positive cells were detected under a fluorescent microscope. On each coverslip, five randomly selected fields were counted with a 40× objective (corresponding to ˜800 cells per coverslip). Cell Death Detection ELISA^Plus (Roche) was performed according to the manufacturer's instructions. Lactate dehydrogenase (LDH) activity in medium was quantified with the Cytotoxicity Detection Kit (LDH; Roche). LDH activity in untreated sister cultures was subtracted, and the LDH activity was expressed as percentage of the maximally releasable LDH pool in the presence of 1 mM glutamate.

cortical neurons [2] = assay: TWEAK-induced cell death in cortical neurons (DAPI and TUNEL staining); type: cell-based
Experimental: as §1
as §2, with “To control for transfection efficiency, cortical neurons of NSE-IκBα-SR mice and wild-type littermates were cotransfected with 0.1 μg Per well of phRL-TK (Promega, Mannheim, Germany) in addition to pNF-κB-Luc.” left out
Cell death assays. […] TUNEL and DAPI-positive cells were detected under a fluorescent microscope. On each coverslip, five randomly selected fields were counted with a 40× objective (corresponding to ˜800 cells per coverslip). […] Lactate dehydrogenase (LDH) activity in medium was quantified with the Cytotoxicity Detection Kit (LDH; Roche). LDH activity in untreated sister cultures was subtracted, and the LDH activity was expressed as percentage of the maximally releasable LDH pool in the presence of 1 mM glutamate.

[3] = exposure for 24 hours, 100 ng/ml

Molecule	NF-κB activation by rhTWEAK and Fc-hTWEAK (NF-κB; BMS-345541 25 μM)	DNA-histone complexes specific to apoptotic DNA fragmentation (ELISA) (cortical neurons [1])	effect size in DNA-histone ELISA compared with camptothecin (cortical neurons [1]; vs 10 μM camptothecin)	NF-κB stimulation in neurons of NSE-IκBα-SR mice vs wild-type littermates (NF-κB; rhTWEAK 100 ng/ml)	NF-κB activity (luciferase) (NF-κB; stimulation for 24 hours)	nuclear condensation (DAPI stain) (cortical neurons [2]; [3])	number of cortical neurons that were TUNEL positive (cortical neurons [2]; [3])	cell death (TUNEL) in IκBα-SR-expressing neurons vs wild-type (cortical neurons [2]; rhTWEAK 100 ng/ml, 24 hours)
Cc1ccc2nc(NCCN)c3ncc(C)n3c2c1 [BMS-345541, reference compound]	blocked	–	–	–	–	–	–	–
B1	–	programmed cell death being induced	comparable with the one with 10 μM camptothecin	significantly less	stimulated NF-κB activity in a concentration-dependent manner	induced nuclear condensation	increased significantly	protected from cell death

From US20090068102A1, “TREATING STROKE” (BIOGEN IDEC MA INC., priority 2005, published 2009)
